“Also recorded” adds a separate entry of the source.
Legend:
[1] = test system: IDO1 expression in Neuro2a cells; test: IL-6 exposure of cultured Neuro2a cells: IDO1 expression and activity; assay type: cell-based; conditions: 0.5 ng/ml for 24 hours
Protocol: Neuro2a cells were cultured in minimal essential (EAGLE) medium (Invitrogen) supplemented with 10% fetal bovine serum, 100 U/ml penicillin, and 100 μg/ml streptomycin (Invitrogen) in a humidified atmosphere of 5% CO2 and 95% air at 37° C. Cells were treated with 0.5 ng/ml IL-6 or vehicle and collected 24 hours later for assays (74).
Rats were anesthetized with pentobarbital (50 mg/kg, i.p.) and perfused transcardially with cold 0.9% saline (pH 7.4±0.1) followed by cold 4% paraformaldehyde in a phosphate buffer (PB, 0.1M, pH 7.4±0.1). Brains were removed and placed in the same fixative for post-fixation at 4° C. for 6 hours. For cryoprotection, the samples were kept with cold 30% sucrose in phosphate buffer saline (PBS) at 4° C. until samples sank to the bottom. Coronal brain sections (30 μm) were cut using a cryostat and then floated in PBS. Sections were blocked with 5% normal donkey serum in 0.3% Triton X-100/PBS for 1 hour at room temperature. Free floating sections were incubated overnight at 4° C. on a rocker with one of the following primary antibodies: 1:100, IDO1 rabbit polyclonal (Santa Cruz Biotechnology Inc.); 1:1,000, NeuN mouse monoclonal (Chemicon); 1:1,000, GFAP mouse monoclonal (BD Bioscience Pharmingen); 1:1,000, Iba-1 mouse monoclonal (Abcam). Sections were then washed with PBS three times and incubated with 1:300 FITC- or cyanine3-conjugated secondary antibody (JacksonlnununoResearch Laboratories Inc) for 1 hour at room temperature. Blue fluorescent DAPI (1:300; Invitrogen) was used to stain the nucleus of fixed cultured Neuro2a cells for 15 minutes.
Rats were sacrificed under pentobarbital anesthesia. The hippocampus was separated from the brain and immediately stored on dry ice and kept at −80° C. until use. Samples were homogenized in a lysis buffer with SDS containing a cocktail of proteinase inhibitors (Roche). Samples were separated on an SDS-PAGE gel (4%-15% gradient gel; Bio-Rad) and transferred to polyvinylidene difluoride filter (PVDF) membranes (Millipore). Membranes were blocked with 5% nonfat dried milk for 1 hour at room temperature and incubated over night at 4° C. on a rocker with one of following primary antibody: 1:200 IDO1 (Santa Cruz Biotechnology Inc.; rabbit polyclonal antibody), 1:200 IDO1 (Novius Biologicals; rabbit polyclonal antibody), 1:500 JAK2 (Santa Cruz Biotechnology Inc.; rabbit polyclonal antibody), 1:1,000 STAT3 (Millipore; rabbit polyclonal antibody), 1:5,000 p-STAT3 (Abcam; rabbit monoclonal antibody). After membranes were washed with PBS×4, membranes were incubated with 1:8,000 HRP conjugated secondary antibody (Amersham, Biosciences) for 1 hour at room temperature on a rocker. The membranes were washed with PBS×4 and blots were visualized in enhanced Chemiluminescent (ECL) solution (Pierce) for 5 minutes and exposed to hyperfilms (Kodak) for 15 minutes. Blots were again incubated in a Stripping buffer (Pierce) for 15 minutes at room temperature on a rocker and reprobed with 1:12,000 anti-β-actin antibody (Abeam Inc.) as a loading control. Western blots were made in triplicates. Band density was measured and normalized against a loading control band.
Total RNA was isolated from hippocampal samples using TRIzol reagent (Invitrogen). Four μg of total RNA was used to synthesize the first strand cDNA using SuperScript III kit (Invitrogen). Four μl of cDNA was put into 20 μl vessel with 1 μl of 20× TaqMan Gene Expression Assay. Taqman Gene Expression Assays (Applied Biosystems) containing primers and a Taqman probe were used to quantify each gene of interest. The genes examined were IL-6 (Rn01410330 m1, M26744.1) and IDO1 (Rn00576778 m1, AF312699.1) for rats and IL-6 (Mm00446190 m1, X54542.1) and IDO1 (Mm00492586 m1, M69109.1) for mice. The reaction was performed in duplicate with the following conditions: denaturing at 95° C. for 30 s, annealing at 60° C. for 2 min, extension at 68° C. for 2 min for 40 cycles using a 7300 Real-Time PCR System (Applied Biosystems). […]

naive rats = test: Intra-hippocampal microinjection in naive rats: nociceptive and depressive behavior; assay type: in vivo, rat; conditions: 0.1 μg once daily x 7 d into the left hippocampus of naive rats
Protocol: (§1) Under brief isoflurane anesthesia, a guide cannula (26 gauge, Plasticsone) was implanted just above the hippocampus (AP: −3.6 mm; left: +2.0 mm from Bregma; depth: −4.0 mm from skin) (Paxinos, G., and Watson, C. 1998. The rat brain in stertaxic coordinates. New York: Academic Press). An injection needle (33 gauge, Plasticsone) was inserted through the guide cannula and drug solution or vehicle (0.5 μl) was slowly injected over 5 min using a Hamilton syringe. Locations of the cannula placement were confirmed at the time of tissue harvest (data not shown).
Animals were habituated to a test setting (30-min session) for three consecutive days. Thermal withdrawal threshold was assessed using the Hargreaves' apparatus and method (Hargreaves, K., et al., 1988. A new and sensitive method for measuring thermal nociception in cutaneous hyperalgesia. Pain 32:77-88). Mechanical withdrawal threshold was assessed using von Frey filaments (Tal, M., and Bennett, G. J. 1994. Extra-territorial pain in rats with a peripheral mononeuropathy: mechano-hyperalgesia and mechano-allodynia in the territory of an uninjured nerve. Pain 57:375-382).
FST was performed according to the original method by Porsolt et al (Porsolt, R. D., Le, P. M., and Jalfre, M. 1977. Depression: a new animal model sensitive to antidepressant treatments. Nature 266:730-732). The total duration of immobility (non-swimming) within a 5-min session was recorded as immobility scores (in seconds) and compared among groups.

IDO1 = test: Intra-hippocampal microinjection in naive rats: hippocampal IDO1 mRNA (real-time PCR); assay type: in vivo, rat; conditions: 0.1 μg once daily x 7 d into the left hippocampus of naive rats; P<0.05
Protocol: as §1
Total RNA was isolated from hippocampal samples using TRIzol reagent (Invitrogen). Four μg of total RNA was used to synthesize the first strand cDNA using SuperScript III kit (Invitrogen). Four μl of cDNA was put into 20 μl vessel with 1 μl of 20× TaqMan Gene Expression Assay. Taqman Gene Expression Assays (Applied Biosystems) containing primers and a Taqman probe were used to quantify each gene of interest. The genes examined were IL-6 (Rn01410330 m1, M26744.1) and IDO1 (Rn00576778 m1, AF312699.1) for rats and IL-6 (Mm00446190 m1, X54542.1) and IDO1 (Mm00492586 m1, M69109.1) for mice. […] The RNA expression of GAPDH was measured as control.

B1: IL-6: exogenous IL-6 (recombinant rat IL-6), proinflammatory cytokine (protein, UniProt P20607 25-211, looked up)
Interleukin-6: FPTSQVRRGDFTEDTTHNRPVYTTSQVGGLITYVLREILEMRKELCNGNSDCMNSDDALSENNLKLPEIQRNDGCFQTGYNQEICLLKICSGLLEFRFYLEFVKNNLQDNKKDKARVIQSNTETLVHIFKQEIKDSYKIVLPTPTSNALLMEKLESQKEWLRTKTIQLILKALEEFLKVTMRSTRQT
IDO1 immunoreactivity (FIG. 8A) [1]: increased
IDO activity [KYN/TRP ratio and 5-HT/TRP ratio] [1]: increased
kynurenine/tryptophan ratio (HPLC; FIG. 8D) ([1]; P<0.05): increased kynurenine/tryptophan ratio
serotonin/tryptophan ratio (HPLC; FIG. 8E) ([1]; P<0.05): decreased serotonin/tryptophan ratio
IDO1 mRNA expression (real-time PCR; FIG. 8B) ([1]; P<0.05 vs vehicle): significantly increased
IDO1 protein expression (Western blot; FIG. 8C) ([1]; P<0.05 vs vehicle): significantly increased
depressive behavior in forced swimming test (FIG. 9G) (naive rats; P<0.001): induced depressive behavior in forced swimming test
thermal hyperalgesia on the right hindpaw (FIG. 9F) (naive rats; P<0.01): induced
mechanical allodynia on the right hindpaw (FIG. 9E) (naive rats; P<0.05 vs vehicle): induced
hippocampal IDO1 mRNA expression (FIG. 9H) (IDO1): increased IDO1 mRNA expression in the hippocampus; also recorded: up-regulated the hippocampal IDO1 mRNA expression
